Assay results as given in the supplement of paper PMC6755084.

B1: minF1; a variant is named by its letters at N, in order (parent)
chain: GAGACCGCAACTGAAAAGTTGTTNNNNAANNNNGGNTNNATTTCTGCACGTAGAAGCAAAAGGC
B2: F1*; the commonest letter at each place (parent)
chain: GAGACCGCAACTGAAAAGTTGTTATCACTTGTCGTAAGACACTTTGGATGGGTTGAAGTTCTGCACGTAGAAGCAAAAGGC

Variants of: B1
Test: fraction ligated after 30 min (ligated reads / total reads); higher = more ligase activity
Details: with F1*subA RNA substrate (template-directed ligation), 42 °C
Experimental: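 Chip-synthesised pool of minF1 ligase ribozyme variants (single and double substitutions, single to quadruple deletions, bulge and P2 designed variants) was transcribed with T7 and reacted as a pool with excess substrate F1*subA for 30 min at 42 C in 50 mM EPPS pH 8.5, 25 mM MgCl2. Ligated and unligated RNAs were separated by PAGE, barcoded by RT and deep sequenced; fraction ligated = ligated reads / total reads, relative activity = FL / FL of wild-type minF1 (0.76); sequencing FL correlated with PAGE (R2 = 0.98). Sequences are the DNA template of the ribozyme.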

Variant | fraction ligated
TAGAGGATGTA T23A A29T | 0.00136
TCAAGATGTGA T23A A29T | 0.00239
TCAAGATGTGA T23A A29G | 0.00178
ACAGAATGTGA | 0.00222
TAGATGGTTGA T23A | 0.00325
AAGAGGATTGA A29T | 0.007
TAGAGGATTGA T23A | 0.00191
CAGATGGATGA T23A | 0.00203
AAGATATGTGA | 0.00183
TAAAGGATGTG A29T | 0.00445
TAGAGGTGTGA | 0.00375
AAAAGATGTGA T23A A28T A29G | 0.00631
TAGATGGAGTA T23A | 0.000612
TAAAGATGTGA T23A A29G | 0.00271
TAAAGATGTGA T23A A29T | 0.00358
CAGAGGATGTG T23A | 0.00549
TAAAGGTGTGA T23A A29T | 0.00275
TAAAGGATGTA A29T | 0.00265
TCAATGGATGA T23A | 0.00363
ACAAGGTGTGA | 0.00367
TCAAGGATGTG A29T | 0.00632
TAGATGGAGTG | 0.00279
TAGATGGAGTA | 0.00154
TAGATGGATGA T23A | 0.00368
CAGAGATGTGA T23A A28T A29G | 0.00252
CAGATGATGTG T23A | 0.00584

Variant | fraction ligated
TCAGAGGAGTA G34T | 0.00236
CAGATGGTTGA T23A | 0.00385
CAGAGGATGTA T23A A29T | 0.00576
TAGATGGTTGA | 0.00065
TAGAGGATGTG T23A A29T | 0.00945
TCAGAGGAGTA T23A G34T | 0.0014
AAGAGATGTGA | 0.00157
TAGAGGATTGA T23A A29T | 0.00233
ACAAGGATTGA A29T | 0.00464
AAAAGGAGTGA A29T | 0.00356
TCAATGGTGTA T23A | 0.00153
ACAAGGATGTG | 0.00585
ACAAGGATGTA | 0.00108
TAGATGGAGTG T23A | 0.00424
CAAAGATGTGA T23A A29G | 0.00234
CAAAGATGTGA T23A A29T | 0.00168
AAGAGGTGTGA | 0.00286
AAAAGGATTGA A29T | 0.00197
TAGATGGATGA | 0.00101
CAAAGGTGTGA T23A A29T | 0.00303
CAGATGGAGTG T23A G34T | 0.0111
ACAAGGATGTA A29T | 0.00548
TAGATGGAGTG G34T | 0.0121
AAAAGATGTGA T23C A28T A29G | 0.00238
CAGATGATGTA | 0.00303
CAGATGATGTG | 0.00641

Variant | fraction ligated
CAGAGGATTGA T23A | 0.00223
CAGAGGAGTGA T23A A29T | 0.000641
TCAATGGAGTG T23A | 0.0035
TAGAGGTGTGA T23A A29T | 0.00331
GAAAGATGTGA T23A A28T A29G | 0.00194
CAGATGTGTGA T23A | 0.00226
TCAATGATGTG T23A | 0.00503
TCAAGATGTGA T23A | 0.0017
TAGATGATGTA | 0.00158
TAGATGATGTG | 0.0051
CAAAGATGTGA A29G | 0.00439
CAAAGATGTGA A29T | 0.00371
AAAAGGATGTG A29T | 0.00334
CAGAGATGTGA A29T | 0.00205
CAGAGATGTGA A29G | 0.00315
TAAAGATGTGA T23A A28T A29G | 0.00461
ACAAGGATTGA | 0.00332
TCAATGGTGTG T23A | 0.00466
TAGAGGATGTG | 0.00216
TAGAGGATGTA | 0.000988
TAGATGGAGTT T23A G34T T37G A40G | 0.00177
ACAATGGTGTG | 0.00545
ACAATGGTGTA | 0.00264
TAGATGATGTA T23A | 0.00397
CAGATGGAGTT T23A G34T T37G | 0.00071
CAGAGGATTGA | 0.00276

Variant | fraction ligated
TCAAGGAGTGA A29T | 0.00143
TAGATGAGTGA | 0.00265
TAAAGATGTGA A29T | 0.00224
TAAAGATGTGA A29G | 0.00158
CAGATGAGTGA | 0.00146
CAAAGGTGTGA A29T | 0.00133
AAGAGGAGTGA A29T | 0.00209
CAGATGGTGTA | 0.00171
CAGATGGTGTG | 0.00377
CAGAGATGTGA T23A A29T | 0.00283
CAGAGATGTGA T23A A29G | 0.00348
ACAATGATTGA | 0.00348
TCAATGGTTGA T23A | 0.00285
TCAGAGAGTGA T23A | 0.0017
AAGAGATGTGA A29G | 0.00367
AAGAGATGTGA A29T | 0.00363
TCAGAGATGTA T23A | 0.00211
TAGAGATGTGA T23A | 0.00319
AAGATGTGTGA | 0.00241
CAGATGATTGA T23A | 0.00168
CAGATGGGTGA T23A | 0.00475
AAGATGGAGTG G34T | 0.00776
ACAGAGATGTA | 0.00268
ACAGAGATGTG | 0.00764
TAGATGGAGTG T23A G34T | 0.00936
TAGAGGTGTGA T23A | 0.00196

Variant | fraction ligated
TAGATGGTGTA T23A | 0.00161
TCAATGAGTGA T23A | 0.00315
TCAATGGAGTT T23A G34T T37G A40G | 0.00124
TAAAGGATTGA T23A A29T | 0.00317
CAGAGGTGTGA A29T | 0.00368
TCAGAGATGTG T23A | 0.00606
CAGATATGTGA T23A | 0.00265
GAAAGATGTGA T23C A28T A29G | 0.00212
CAGATGTGTGA | 0.00342
TCAAGGATTGA T23A A29T | 0.00443
TAGATGGGTGA | 0.00433
TAGATGATTGA T23A | 0.00257
TCAAGATGTGA A28T A29G | 0.00257
TCAATGGATGA | 0.00193
CAAAGGATGTA T23A A29T | 0.000678
CAAAGGAGTGA A29T | 0.00216
ACAATATGTGA | 0.00334
CAGAGGATGTG T23A A29T | 0.0132
TAGATGGGTGA T23A | 0.000824
CAAAGGATGTG A29T | 0.0079
TAGATGGTGTA | 0.00141
TAGATGGTGTG | 0.0042
AAGATGATGTA | 0.00102
AAGATGATGTG | 0.00397
ACAATGGAGTA G34T | 0.0117
CAGATATGTGA | 0.00323

Variant | fraction ligated
AAAAGGTGTGA A29T | 0.00306
ACAAGGAGTGA | 0.00357
TCAATGGAGTA | 0.00279
TCAATGGAGTG | 0.00581
ACAATGAGTGA | 0.000748
AAGATGGAGTG | 0.00495
AAGATGGAGTA | 0.00181
ACAATGGATGA | 0.00232
CAAAGATGTGA A28T A29G | 0.00352
ACAATGGTTGA | 0.00142
TAGAGGATGTG A29T | 0.0045
CAGATGGAGTT G34T T37G A40G | 0.000312
TAGATGGAGTA G34T | 0.00584
TCAATGATTGA | 0.00117
TAGATGAGTGA T23A | 0.00274
TCAAGGTGTGA T23A A29T | 0.00393
TCAATGGAGTT G34T T37G | 0.00235
ACAATGGAGTA | 0.00362
ACAATGGAGTG | 0.00309
TAGATGTGTGA | 0.00395
AAAAGATGTGA A29G | 0.00274
AAAAGATGTGA A29T | 0.00419
TCAATGGAGTG T23A G34T | 0.0342
TCAATGGAGTT G34T T37G A40G | 0.00127

Variants of: B2
Test: fraction ligated after 30 min (ligated reads / total reads); higher = more ligase activity
Details: with F1*sub RNA substrate (template-directed ligation), 42 °C
Outline: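 Oligo-pool templates of ligase ribozyme variants were PCR-amplified, T7-transcribed and gel-purified. Ligated and unligated bands were gel-separated, reverse transcribed with barcoded primers, and MiSeq-sequenced; core bases were filtered at quality ≥20. Fraction ligated per variant was ligated reads over total reads.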

Variant | fraction ligated
unchanged | 0.826
A57C | 0.814
A57T | 0.844
A57G | 0.822
A56T | 0.803
A56T A57G | 0.217
A56T A57T | 0.454
A56T A57C | 0.0772
A56G A57G | 0.807
A56G A57T | 0.383
G58T | 0.834
G58C | 0.767
G58A | 0.851
